Experimental data taken from publication PMC5830921, “A single N‐terminal phosphomimic disrupts TDP‐43 polymerization, phase separation, and RNA splicing” (The EMBO Journal, 2018).
Substitutions are numbered along the chain they refer to. Numbers in names are those of the source.

B1: TDP-43 N-terminal domain (NTD), wild-type, residues 1-80 (domain or fragment)
chain: GHMMSEYIRVTEDENDEPIEIPSEDDGTVLLSTVTAQFPGACGLRYRNPVSQCMRGVRLVEGILHAPDAGWGNLVYVVNYPKD
notes: three additional N-terminal residues left by the cloning strategy and TEV cleavage; TDP-43 N-terminal domain, residues 1-80 (codon of N81 changed to a stop codon); 15N-labelled or natural abundance, depending on the NMR experiment; also called TDP-43 NTD; NTD WT; source: E. coli BL21 Star DE3, purified (Histrap, TEV cleavage, SEC); not shown: Thioredoxin, N-terminal, cleaved; His6, N-terminal, …
B2: TDP-43 NTD S48E, residues 1-80 (domain or fragment)
chain: B1 chain with S51E
notes: three additional N-terminal residues left by the cloning strategy and TEV cleavage; TDP-43 N-terminal domain, residues 1-80, phosphomimetic S48E; 15N-, 13C/15N-labelled or natural abundance, depending on the NMR experiment; also called S48E TDP-43 NTD; S48E 1-80 NTD; source: E. coli BL21 Star DE3, purified (Histrap, TEV cleavage, SEC); not shown: Thioredoxin, N-terminal, cleaved; His6, …

Legend:
[1] = biological target: the molecule itself; test: CG-MALS; composition gradient multi-angle light scattering, 20 mM HEPES pH 6.8, 150 mM NaCl, 1 mM DTT; isodesmic self-association model, each addition of a monomer
[2] = biological target: the molecule itself; test: AUC; sedimentation equilibrium, 28.28-89.23 μM, 150 mM NaCl, 20°C, 12,000, 25,000 and 43,000 rpm; isodesmic model, single KD for each association step
[3] = biological target: the molecule itself; test: cross-linking; amine cross-linker BS3, 20 mM HEPES pH 7.5, 150 mM NaCl, 1 mM DTT, room temperature 30 min, SDS-PAGE; samples of 10-200 μM
[4] = biological target: TDP-43 NTD S48E, residues 1-80 (UniProt Q13148); test: CG-MALS; composition gradient multi-angle light scattering, 20 mM HEPES pH 6.8, 150 mM NaCl, 1 mM DTT; isodesmic self-association model, each addition of a monomer
[5] = biological target: B1; test: NMR titration; 1H-15N HSQC chemical shift deviations of 10 μM 15N-labelled protein with 90 μM natural abundance partner, against 10 μM alone; settings: both partners purified

| Binder | Kd [1] | Kd [2] | stoichiometry N [3] | Kd [4] | binding result [5] |
| --- | --- | --- | --- | --- | --- |
| B1 | 95 µM | ~40 µM | ≤ 7 | – | – |
| B2 | – | – | – | 2000 µM | binds |
